From patent publication US20070117770A1, “Human ribosomal DNA (rDNA) and ribosomal RNA (rRNA) nucleic acids and uses thereof” (Cylene Pharmaceuticals, Inc., priority 2005, published 2007)

How the values were obtained:
nucleolin [1] = target: T1, nucleolin (Homo sapiens, UniProt P19338); experiment: EMSA, relative affinity of nucleic acid ligands for nucleolin; assay type: binding; parameters: key: +: weakest nucleolin affinity; ++++: strongest nucleolin affinity
T1 construct: without the N-terminal acidic stretches domain
T1 sequence (P19338 284-710 limits assumed): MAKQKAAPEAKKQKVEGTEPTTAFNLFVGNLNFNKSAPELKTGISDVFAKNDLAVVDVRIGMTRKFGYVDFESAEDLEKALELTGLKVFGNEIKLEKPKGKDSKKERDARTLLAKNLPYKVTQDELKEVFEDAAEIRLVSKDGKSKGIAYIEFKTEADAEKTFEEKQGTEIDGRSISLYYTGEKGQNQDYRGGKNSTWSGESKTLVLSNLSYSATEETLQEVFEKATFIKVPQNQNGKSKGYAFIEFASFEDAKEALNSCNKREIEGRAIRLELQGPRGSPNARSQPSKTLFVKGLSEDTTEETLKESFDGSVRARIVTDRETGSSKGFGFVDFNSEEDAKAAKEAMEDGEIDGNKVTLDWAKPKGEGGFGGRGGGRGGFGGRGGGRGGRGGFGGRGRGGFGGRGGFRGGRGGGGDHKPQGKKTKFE
Method: The following assays assessed effects of compounds on interactions between nucleolin and nucleic acid ligands capable of forming quadruplex (QP) and hairpin (HP) secondary structures. Nucleic acid ligands tested were a cMyc QP DNA having nucleotide sequence 5′-[…]-3′ (SEQ ID NO: 176) and a HP pre-rRNA region to which nucleolin binds, having the sequence 5′-[…]-3′ (SEQ ID NO: 177). In the assays, recombinant nucleolin (˜250 nM), which was fused to maltose binding protein and had the sequence under accession number NM_005381 without the N-terminal acidic stretches domain, was incubated with each of the two ^32P-labeled nucleic acid ligands (10 or 250 nM). Nucleolin and the nucleic acid ligand were incubated in the presence or absence of a test compound of Formula A-1, B-1, C-6 or C-7 in an incubation buffer (12.5 mM Tris, pH 7.6, 60 mM KCl, 1 mM MgCl2, 0.1 mM EDTA, 1 mM DTT, 5% glycerol, 0.1 mg/ml BSA) for 30 minutes at room temperature. Structures for A-1 and B-1 are shown above and structures for C-6 and C-7 are shown hereafter: [drawing 17] The resulting complexes were separated on a 6% DNA retardation gel using 0.5× TBE with 20 mM KCl as a running buffer (i.e., electrophoresis mobility shift assay (EMSA)).
The assay also was conducted using nucleic acid ligands derived from human ribosomal DNA. Sequences of these nucleic acids are shown in the preceding example. […]

nucleolin [2] = target: T1, nucleolin; experiment: Filter-binding assay of 32P-labeled quadruplexes and Nucleolin; conditions: for Kd: 0.2 nM 32P-labeled quadruplex, read-out: Kd, apparent dissociation constant of nucleolin protein and the nucleic acid ligand
Method: The assay also was conducted in a filter-binding format. […] The protein-quadruplex mixtures were incubated for 30 min at ambient temperature and filtered through mixed cellulose ester membrane filters (Millipore) with gentle suction. The filters were washed twice with […] of binding buffer, dried and OptiPhase ‘SuperMix’ scintillation cocktail (Perkin Elmer) was added to the wells. Radioactivity was assayed with MicroBeta scintillation counter (Perkin Elmer). Binding curves were constructed and apparent Kd's and Bmax's for the complexes were calculated using the GraphPad Prizm software program (GraphPad Software). In the following table, the nucleic acid ligand is designated in the first column using the nomenclature described herein; the second column provides the nucleotide sequence of the nucleic acid ligand; the third column is the conformation of the ligand as determined by circular dichroism (M is mixed, P is parallel, A is antiparallel, C is complex, SS is single-stranded and ND is not determined); the fourth column is the dissociation constant determined by the filter binding assay of nucleolin protein and the nucleic acid ligand; the fifth column is a Bmax constant determined by the filter binding assay, which is the percent of active nucleic acid ligand in each assay; and the sixth column presents the concentration of Compound A-1 required to dissociate half of the complexed nucleic acid ligand and nucleolin protein, as determined by the EMSA assay described above.

B1: CGGAGGGCGCGCGGGTCGGGGCGGCGGCGGCGGCGGCGGTGGCGGCGGCGGCGGGGGCGGCGGG (nucleic acid, listed as Homo sapiens)
chain: CGGAGGGCGCGCGGGTCGGGGCGGCGGCGGCGGCGGCGGTGGCGGCGGCGGCGGGGGCGGCGGG
modifications: listed as DNA, chemistry not given here
Affinity for Nucleolin (relative) (nucleolin [1]): ++++
Bmax, percent of active nucleic acid ligand (nucleolin [2]): 100%
Kd (nucleolin [2]): 0.3 nM

B2: AGGGCGGCGGGCGGGGAAGAGGGCACAGACGGGCGAGGGCCGGGGACCGCGAGGGCAAGGGCACCCGGG (nucleic acid, listed as Homo sapiens)
chain: AGGGCGGCGGGCGGGGAAGAGGGCACAGACGGGCGAGGGCCGGGGACCGCGAGGGCAAGGGCACCCGGG
modifications: DNA, backbone and methylation of C not given here
Bmax, percent of active nucleic acid ligand (nucleolin [2]): 55%
Kd (nucleolin [2]): 0.7 nM
